Assay results reported in paper PMC7612376, “Structural basis of meiotic chromosome synaptic elongation through hierarchical fibrous assembly of SYCE2-TEX12” (Nature structural & molecular biology, 2021).
Residue numbers refer to the chain shown, from its start.

How the values were obtained:
Assay in all cases: SEC-MALS; co-purified complexes at >1 mg/ml on Superdex 200 Increase 10/300 GL in 20 mM Tris pH 8.0, 150 mM KCl, 2 mM DTT; in Fig. 1 core at 200 uM and full-length at 100 uM (4 mg/ml)
Conditions in all cases: both partners purified
SYCE2 core H89E Y115E = target: T1, SYCE2 core H89E Y115E (human, UniProt Q6PIF2 57-165, H89E | Y115E)
T1 construct: SYCE2, human, core, residues 57-165, with H89E and Y115E; source: E. coli BL21 (DE3), co-expressed with TEX12, purified (Ni-NTA, amylose, ion exchange, SEC); not shown: MBP, N-terminal, cleaved
T1 sequence (looked up): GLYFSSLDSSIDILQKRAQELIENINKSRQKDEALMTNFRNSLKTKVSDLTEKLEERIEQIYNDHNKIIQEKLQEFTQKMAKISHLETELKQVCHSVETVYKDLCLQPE

[1] = target: T2, SYCE2 core (amino-acids 57-165) (human, UniProt Q6PIF2 57-165)
T2 construct: SYCE2, human, core, residues 57-165; also called SYCE2 structural core; source: E. coli BL21 (DE3), co-expressed with TEX12, purified (Ni-NTA, amylose, ion exchange, SEC); not shown: MBP, N-terminal, cleaved
T2 sequence (looked up): T1 sequence (looked up) with E33H, E59Y

[2] = target: T3, SYCE2 core V149E V153E V156E L160E (human, UniProt Q6PIF2 57-165, V149E | V153E | V156E | L160E)
T3 construct: SYCE2, human, core, residues 57-165, with V149E, V153E, V156E and L160E; The four mutations are read as combined in one construct (one mass is printed for it); also called V149E, V153E, V156E and L160E mutant; S2C hydrophobic core mutant; source: E. coli BL21 (DE3), co-expressed with TEX12, purified (Ni-NTA, amylose, ion exchange, SEC); not shown: MBP, N-terminal, cleaved
T3 sequence (looked up): T1 sequence (looked up) with E33H, E59Y, V93E, V97E, V100E, L104E

[3] = target: T4, SYCE2 core ΔS2C (amino-acids 57-154) (human, UniProt Q6PIF2 57-154)
T4 construct: SYCE2, human, ΔS2C, residues 57-154; source: E. coli BL21 (DE3), co-expressed with TEX12, purified (Ni-NTA, amylose, ion exchange, SEC); not shown: MBP, N-terminal, cleaved
T4 sequence (looked up): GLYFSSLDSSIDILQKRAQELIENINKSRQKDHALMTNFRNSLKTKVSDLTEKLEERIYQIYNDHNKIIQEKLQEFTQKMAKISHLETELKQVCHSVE

B1: TEX12 core (amino-acids 49-123) (domain or fragment, human, UniProt Q9BXU0 49-123, looked up)
chain: KDEALEKDLNDVSKEINLMLSTYAKLLSERAAVDASYIDEIDELFKEANAIENFLIQKREFLRQRFTVIANTLHR
notes: TEX12, human, core, residues 49-123; also called TEX12 structural core; source: E. coli BL21 (DE3), co-expressed with SYCE2, purified (Ni-NTA, amylose, ion exchange, SEC); not shown: His6, N-terminal, cleaved
stoichiometry N (SYCE2 core H89E Y115E): 1 TEX12 per SYCE2 (2:2) | stoichiometry N [1]: 1 TEX12 per SYCE2 (4:4) | stoichiometry N [2]: 1 TEX12 per SYCE2 (2:2) | stoichiometry N [3]: 1 TEX12 per SYCE2 (2:2)
